Source: article PMC9076600, “Ultrasensitive detection of Staphylococcal enterotoxin B in milk based on target-triggered assembly of the flower like nucleic acid nanostructure†”

Tests used:
Test in all cases: Binding buffer not stated; […] (50 uM) […]
[1] = target: Staphylococcal enterotoxin B (SEB) (UniProt P01552 28-266)
[2] = target: Staphylococcal enterotoxin A (SEA) (UniProt P0A0L2 25-257)
[3] = target: OVA (UniProt P01012 2-386)
Chain of OVA (P01012 2-386): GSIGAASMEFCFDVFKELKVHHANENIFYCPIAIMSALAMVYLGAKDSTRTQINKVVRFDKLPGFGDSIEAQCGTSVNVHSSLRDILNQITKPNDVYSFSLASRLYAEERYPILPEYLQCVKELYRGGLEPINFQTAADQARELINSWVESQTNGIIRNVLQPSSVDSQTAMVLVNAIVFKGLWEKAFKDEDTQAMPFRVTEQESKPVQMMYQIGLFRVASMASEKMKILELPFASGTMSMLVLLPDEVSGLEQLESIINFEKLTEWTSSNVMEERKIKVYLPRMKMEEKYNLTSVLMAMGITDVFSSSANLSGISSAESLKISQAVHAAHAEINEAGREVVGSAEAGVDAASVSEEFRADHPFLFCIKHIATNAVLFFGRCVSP

Chain of Staphylococcal enterotoxin B (SEB) (P01552 28-266): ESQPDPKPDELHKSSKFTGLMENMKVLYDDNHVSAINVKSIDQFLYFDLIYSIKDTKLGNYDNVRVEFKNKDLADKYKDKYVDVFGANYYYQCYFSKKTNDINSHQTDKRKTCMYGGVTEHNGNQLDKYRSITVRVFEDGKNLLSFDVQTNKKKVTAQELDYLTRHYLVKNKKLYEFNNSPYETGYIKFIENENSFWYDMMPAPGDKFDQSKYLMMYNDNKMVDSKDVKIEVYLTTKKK
Chain of Staphylococcal enterotoxin A (SEA) (P0A0L2 25-257): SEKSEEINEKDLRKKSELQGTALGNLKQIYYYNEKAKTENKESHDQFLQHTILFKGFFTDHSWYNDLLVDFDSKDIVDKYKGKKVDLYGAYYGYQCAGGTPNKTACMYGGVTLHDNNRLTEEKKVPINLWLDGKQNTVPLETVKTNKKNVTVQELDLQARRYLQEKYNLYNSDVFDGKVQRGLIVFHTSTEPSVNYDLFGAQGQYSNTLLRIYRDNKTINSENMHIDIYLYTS

B1: SEB aptamer (ssDNA)
DNA: GGTATTGAGGGTCGCATCCACTGGTCGTTGTCTGTTGTCTGTTATGTTGTTTCGTGATGGCTCTAACTCTCCTCT
**Q.** Which results are given for B1?
**A.** binding result [1]: binds; binding result [2]: no binding; binding result [3]: no binding
